From article PMC5269589, “Functional characterization of NES and GES responsible for the biosynthesis of (E)-nerolidol and (E,E)-geranyllinalool in Tripterygium wilfordii” (Scientific Reports, 2017)

How the values were obtained:
[1] = substrate: CC(C)=CCC/C(C)=C/CC/C(C)=C/CO[P@@](=O)(O)OP(=O)(O)O; test: GC-MS of hexane-extracted product; Michaelis-Menten fit; format: biochemical, Tripterygium wilfordii; settings: 200 mM K+, pH 7.5, 30 °C, 10 min, Mg2+ 10 mM in text (20 mM in Figure 5 legend), product (E)-nerolidol
[2] = substrate: CC(C)=CCC/C(C)=C/CC/C(C)=C/CC/C(C)=C/COP(=O)(O)OP(=O)(O)O; test: as above; format: biochemical, Tripterygium wilfordii; settings: pH 7.5, 30 °C, 10 min, Mg2+ 10 mM in text (20 mM in Figure 5 legend), no added K+ stated, product (E,E)-geranyllinalool

B1: TwNES (Tripterygium wilfordii) (protein)
chain: MAFFGSSRSSIIPLKTISQIVTADSTNKRGTVDSNHKSAPTTPLNDRICTEHAHKVKDFKQIINIAGEDPSEGLAIIDAVQRLGVDHHFQDEIHTILQKHYTLATGTTTHGDCMITSLRFRLLRQEGYYVSADVFEGLKDEEGKFDQNLSGDIKGLMALYEASQLSMEGENILDEARDYSSRLLNECVTQLDHDQARIVEHTLTHPHHKSLARFMAKNFLRDFHGTNGWIDDLKKLAKVDFDMAQSTYQKEVVQISQWWKELGLAEELKFARDQPVKWYIWTTTCHQDPSFSELRINLTKPISFVYLIDDIFDVYGTPQEVTDFTEAVDRWDHDAIDQLPYYMKICFKALDDITNEISYKVYKQHGWNPLDSLRKSWGRLCNAFLTEAQWFASGHLPKAEEYLENGIISSGVPVVLLHLFFLLGEGVTQKSVEMIDNTPAIVSAAAAILRLWDDLGSAKDEDQDGKDGSYLACYTNENPGCSLEDAEKHVKSKICDEWKQLNKECLSQKNPFSPSFLKACLNVSRMVPLMYEYDENRRLPRLEEFLKSILIK
notes: MBP fusion (pMAL-c2X) from E. coli Transetta (DE3), amylose resin; tag cleavage not mentioned; gene synthesized
Work on B1 yielded a Km [1] of 12.700 µM.

B2: TwGES1 (Tripterygium wilfordii) (protein)
chain: MDFSDSSIISLVDKIKVEMFVDMDVYSFVAPSAYDTAWLAMVPDSRSPVQPLFMDCLDWVLNNQREEGFWGDIDGHGMPAIESLTSTLACLIALKKWNVGESAIQKGLDFVRENAEMYIEEIKDCCPRRFAVIFPAMLEQASSLGLDNILPNHVKDTVHVMDIFIEHRRIVEKEELVETYHYPPLLAYLEALPPNKIDKDQIVTHLSSDGSLFQSPSATASAFMITGNKDCLAYLKAIIQRCPNGVPATYPIDEDLIRLCMVNHLQRLGLAEHFTKEIKNMLTSVHRNYSTNHRSTVKDSNLLHLYKDSLAFWLLRMNGYIVSPGSFCWFMQRGDIKDRIENNYYDDDFSSVMLNVYKATDLMFPGEEDQLEEARCFARKLLENVISTTSGNQNHLHKLIGHELKTPWLARLDHLEHKMWITQEHDSTLLWMGKFSFHRLSYDNSERLTQLAVQNYKYRQSIYRKELVELKRWSREWGLSEMGFGREKTTYCYFVVAASTSLPKHSDVRLIAAKIGILITVADDFFDEHASLDELQNLTHAIQRWDGKGLSGHSRTIFEVLDDLVREIAKKYKEQQEGIDVSDSLKNLWYETFLAWLVESQWSKNGHIPSMDEYIETGMISIASHTLLLPASCFLNPSLAYHQLKPLEYENITKLLMLITRLLNDTQSYQKEQKSGKKNFVLLYLKENPEAEIEDAIEYVGEIIEKKKKEFFEYALMDGLSELPKECRHLHLACLKVYQMLFNSSNRYDSNTELIQDIQEAFYQSPDPEIGVSSSKSSSIKSTKKPVSLPQHLSFKKQNNQTTSYYHSSFDYRGSNNIAVKWASWPKWRVDGYNKSMFVTPKFSPCFI
notes: MBP fusion (pMAL-c2X) from E. coli Transetta (DE3), amylose resin; tag cleavage not mentioned
Work on B2 yielded a Km [2] of 2.039 µM.
